Results published in publication PMC8250900.

B1: RBD2 (ssDNA)
DNA: GGGAGAGGAGGGAGATAGATATCAATACAGTTGGTTGTAGGTTTTTGTTAGGTTAGTTTAGGGTTTTTCGTGGATGCCACAGGAC
B2: RBD4 (ssDNA)
DNA: GGGAGAGGAGGGAGATAGATATCAATGGGTGGGAGGGAGGGGGGCTTTATTCCGGTGTTTTTTCGTTTCGTGGATGCCACAGGAC
B3: RBD1 (ssDNA)
DNA: GGGAGAGGAGGGAGATAGATATCAAGTTAGGTTCTGGATTAGGTTAGGGTTGTGTTGTTGTTAGGTTTCGTGGATGCCACAGGAC
B4: SP6 (ssDNA)
DNA: GGGAGAGGAGGGAGATAGATATCAACCCATGGTAGGTATTGCTTGGTAGGGATAGTGGGCTTGATGTTTCGTGGATGCCACAGGAC
B5: SP6 biotin (ssDNA)
DNA: GGGAGAGGAGGGAGATAGATATCAACCCATGGTAGGTATTGCTTGGTAGGGATAGTGGGCTTGATGTTTCGTGGATGCCACAGGAC
B6: SP5 (ssDNA)
DNA: GGGAGAGGAGGGAGATAGATATCAACCATGGTAGGTATTGCTTGGTAGGGATAGTGGGCTTGATGTTTCGTGGATGCCACAGGAC
B7: SP7 (ssDNA)
DNA: GGGAGAGGAGGGAGATAGATATCAAAGGAGGGTAGGTAGTGCTTGGTAGGGAAACTCCGCCGATTTTTCGTGGATGCCACAGGAC
B8: RBD3 (ssDNA)
DNA: GGGAGAGGAGGGAGATAGATATCAATGGGTGTTTTGGTTGTAGGGTTTAGGTTTAGGGTACTCTTTTTCGTGGATGCCACAGGAC

Experiments:
SARS-CoV-2 spike RBD = SARS-CoV-2 spike RBD (SARS-CoV-2, UniProt P0DTC2 319-591); assay: flow cytometry
[1] = target: T1, SARS-CoV spike extracellular domain (CoV-S) (SARS-CoV, UniProt P59594 14-1190); assay: flow cytometry
[2] = target: T2, ACE2 extracellular domain (human, UniProt Q9BYF1 19-615); assay: flow cytometry
T2 sequence (Q9BYF1 19-615): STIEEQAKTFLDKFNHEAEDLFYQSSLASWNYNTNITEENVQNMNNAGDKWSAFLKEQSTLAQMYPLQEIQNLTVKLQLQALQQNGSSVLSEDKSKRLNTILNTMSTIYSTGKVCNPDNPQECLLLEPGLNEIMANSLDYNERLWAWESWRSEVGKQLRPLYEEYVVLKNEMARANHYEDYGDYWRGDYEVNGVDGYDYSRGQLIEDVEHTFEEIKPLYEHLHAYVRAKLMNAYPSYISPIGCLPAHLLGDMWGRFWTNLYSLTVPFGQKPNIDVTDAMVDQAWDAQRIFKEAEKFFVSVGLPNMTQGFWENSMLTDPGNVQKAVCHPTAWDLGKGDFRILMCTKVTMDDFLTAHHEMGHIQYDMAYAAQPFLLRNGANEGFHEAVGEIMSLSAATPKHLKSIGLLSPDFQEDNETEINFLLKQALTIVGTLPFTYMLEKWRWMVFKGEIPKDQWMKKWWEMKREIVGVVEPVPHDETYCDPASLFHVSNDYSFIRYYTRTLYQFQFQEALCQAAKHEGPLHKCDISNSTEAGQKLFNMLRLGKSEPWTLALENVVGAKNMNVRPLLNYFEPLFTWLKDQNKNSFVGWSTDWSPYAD

[3] = target: T1, SARS-CoV spike extracellular domain …; assay: pull-down
[4] = target: T2, ACE2 extracellular domain; assay: pull-down
Nek7 = Nek7 (human, UniProt Q8TDX7 1-302); assay: pull-down
Nek7, sequence (Q8TDX7 whole entry): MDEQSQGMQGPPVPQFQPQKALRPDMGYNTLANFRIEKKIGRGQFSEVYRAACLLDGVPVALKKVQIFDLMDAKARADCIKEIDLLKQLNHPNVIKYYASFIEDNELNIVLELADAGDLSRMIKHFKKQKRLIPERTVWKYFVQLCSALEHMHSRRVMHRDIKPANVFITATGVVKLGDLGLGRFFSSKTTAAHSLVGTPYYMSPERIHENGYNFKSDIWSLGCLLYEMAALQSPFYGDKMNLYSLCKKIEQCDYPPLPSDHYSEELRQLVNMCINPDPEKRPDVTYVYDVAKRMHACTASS

Binder	binding result (SARS-CoV-2 spike RBD)	binding result [1]	binding result [2]	also measured
B1	binds	–	–	–
B2	binds	–	–	–
B3	binds	–	–	–
B4	no binding	no binding	no binding	–
B5	–	–	–	binding result [3]: no binding; binding result [4]: no binding; binding result (Nek7): no binding
B6	no binding	no binding	no binding	–
B7	no binding	no binding	no binding	–
B8	binds	–	–	–
